In US20180057581A1 (MorphoSys, published 2018):
Changes are numbered by the printed parent chain. Each block holds one binder with its values, some of them ahead of it.

Assays:
[1] = target: T1, Recombinant human sgM-CSF (human, UniProt P09603 33-255); test: cell-based or functional assay
T1 sequence: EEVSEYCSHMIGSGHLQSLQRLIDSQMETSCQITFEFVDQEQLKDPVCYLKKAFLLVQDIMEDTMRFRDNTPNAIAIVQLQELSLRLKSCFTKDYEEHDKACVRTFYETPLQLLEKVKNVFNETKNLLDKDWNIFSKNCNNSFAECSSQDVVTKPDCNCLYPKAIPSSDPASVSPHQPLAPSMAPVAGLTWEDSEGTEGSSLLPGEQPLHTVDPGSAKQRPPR

[2] = target: T2, Recombinant cynomolgus monkey sgM-CSF (cynomolgus (Macaca fascicularis), UniProt P09603 33-255 (human entry), limits assumed); test: cell-based or functional assay
T2 chain: T1 sequence with V186M, E192D

[3] = target: T2, Recombinant cynomolgus monkey sgM-CSF; test: Receptor binding assay, inhibition of cynomolgus M-CSF binding to M-CSF receptor (competitor CSF1-R-Fc); Table 12 summary
Description: Complexes were then transferred to 384 well MSD plates coated with 2 μg/ml of the corresponding receptor. Plates were then washed and incubated with the streptavidin/ECL conjugate for 2 h with shaking at room temperature. 35 μl MSD read buffer T with surfactant was then added per well and subsequently measured using MSD Sector Imager 6000.

human M-CSF = target: T3, human M-CSF (human, UniProt P09603 33-255, limits assumed); test: ELISA
T3 construct: also called M-CSF (human); CSF-1
T3 sequence: T1 sequence
Description: (§1) BSA was used as a negative control substrate.
(§2) After blocking of plates with 5% skim milk powder in PBS, Fab-containing E. coli lysates, IgG-containing cell culture supernatants or purified IgG or Fab proteins were added. Binding of Fabs or IgGs was detected by F(ab)₂ specific goat anti-human IgG conjugated to alkaline phosphatase (Dianova Cat# 109-055-097; diluted 1:5000) using Attophos fluorescence substrate (Roche, #11681982001). Fluorescence emission at 535 nm was recorded with excitation at 430 nm.

[4] = target: T2, Recombinant cynomolgus monkey sgM-CSF; test: ELISA
Description: as §1, §2

[5] = target: T1, Recombinant human sgM-CSF; test: Receptor binding assay, inhibition of human M-CSF binding to M-CSF receptor (competitor CSF1-R-Fc); Table 12 summary
[6] = target: T1, Recombinant human sgM-CSF; test: Table 12 summary, criterion Binding, Human M-CSF; assay and antibody format not named there
Description: The monovalent affinity of the antibodies of the present disclosure was determined by soluble equilibrium titration (Haenel et al. (2005) Anal Biochem 339, 182-4).

GM-CSF = GM-CSF (Homo sapiens (Human), UniProt P04141 18-144); test: not described (Table 12, criterion Binding)
Chain of GM-CSF (P04141 18-144 limits assumed): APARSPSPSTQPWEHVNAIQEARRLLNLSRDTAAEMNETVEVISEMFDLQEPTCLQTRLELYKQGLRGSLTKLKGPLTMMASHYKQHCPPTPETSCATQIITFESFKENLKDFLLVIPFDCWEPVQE

- IC50 [3]: 0.021 nM
- ELISA fluorescence units (human M-CSF): > 35000 units
- ELISA fluorescence units [4]: > 35000 units
- IC50 [5]: 0.031 nM
- Kd [6]: 0.038 nM
- binding result (GM-CSF): no binding
B1: 8.10.3F (format not stated) (antibody, V domains shown)
VH: EVQLVESGGGLVQPGGSLRLSCAASGFTFSSFSMTWVRQAPGKGLEWVSYISSRSSTISYADSVKGRFTISRDNAKNSLYLQMNSLRDEDTAVYYCARDPLLAGATFFDYWGQGTLVTVSS
VL: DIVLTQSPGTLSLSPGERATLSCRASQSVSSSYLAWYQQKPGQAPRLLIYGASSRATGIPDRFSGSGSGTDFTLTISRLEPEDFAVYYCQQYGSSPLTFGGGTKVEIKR
notes: Prior art antibody; also called 8.10.F3
- Cell viability assay (IC50), Human M-CSF [1]: 0.071 nM
- Cell viability assay (IC50), Cynomolgus M-CSF [2]: 0.085 nM

- IC50 [3]: 0.028 nM
- ELISA fluorescence units (human M-CSF): > 35000 units
- ELISA fluorescence units [4]: > 35000 units
- IC50 [5]: 0.027 nM
- Kd [6]: > 1 nM
- binding result (GM-CSF): no binding
B2: HeRX1-10G1 (format not stated) (antibody, V domains shown)
VH: QVQLQESGPGLVKPSQTLSLTCTVSDYSITSDYAWNWIRQFPGKGLEWMGYISYSGSTSYNPSLKSRITISRDTSKNQFSLQLNSVTAADTAVYYCASFDYAHAMDYWGQGTTVTVSS
VL: DIVLTQSPAFLSVTPGEKVTFTCQASQSIGTSIHWYQQKTDQAPKLLIKYASESISGIPSRFSGSGSGTDFTLTISSVEAEDAADYYCQQINSWPTTFGGGTKLEIKR
notes: Prior art antibody
- Cell viability assay (IC50), Human M-CSF [1]: 0.004 nM
- Cell viability assay (IC50), Cynomolgus M-CSF [2]: 0.004 nM
